Experimental data published in the Immune Epitope Database (IEDB).

Assays:
Test in all cases: IEDB peptide-MHC binding, purified MHC/competitive/fluorescence; filed as Kd, often an IC50 or EC50 that approximates it; ≥ and ≤ were set here for values at or beyond the usual limits of such assays
Conditions in all cases: source organism: human gammaherpesvirus 4
HLA-B*15:42 = target: HLA-B*15:42
HLA-B*27:20 = target: HLA-B*27:20
HLA-B*40:13 = target: HLA-B*40:13
HLA-B*45:06 = target: HLA-B*45:06
HLA-B*83:01 = target: HLA-B*83:01

## AQRAAGPSV
HLA-B*15:42
  Kd: 1190 nM
HLA-B*27:20
  Kd: 0.7 nM
HLA-B*40:13
  Kd: 212 nM
HLA-B*45:06
  Kd: 9.2 nM
HLA-B*83:01
  Kd: ≥ 5000 nM
